Laboratory results as given in patent US20260306683 (published 2026).
Like-named read-outs stand apart in the source and are kept apart here.

Experiments:
Test in all cases: ELISA
[1] = molecular target: T1, misfolded (denatured) human SOD1 (human, UniProt P00441)
[2] = molecular target: T1, misfolded (denatured) human SOD1; remark: listed apart in the source
[3] = molecular target: T1, misfolded (denatured) human SOD1; remark: listed apart in the source

T1 sequence (P00441 2-154): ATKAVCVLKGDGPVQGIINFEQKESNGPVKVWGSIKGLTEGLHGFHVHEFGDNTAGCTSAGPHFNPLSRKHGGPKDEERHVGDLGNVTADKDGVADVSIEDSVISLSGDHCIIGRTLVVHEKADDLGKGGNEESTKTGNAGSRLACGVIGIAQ

B1: Degly-natZr-DFO-AP-101 (antibody, V domains shown)
VH: QVQLVQSGAEVKKPGASVTLSCKASGYTFTAYYIHWVRQAREQGLEWMGVINPSTGTTFYAQNFPDRVSVTRDTSTSTVFMELHNLKSEDTAVYYCARAISEHGSGSYSPYYWGQGTLVTVSS
VL: SYELTQPPSVSVSLGQMAAITCSGEALPKKYGYWYQQKPGQVPVLLIYRDVERPSGVPDRFSGSSSGTMVTLTISGVQAEDEADYYCLSADSSGTWVFGGGTKLTVLG
modifications: EndoS2 deglycosylated, DFO conjugated on lysines (0.6:1.0), natZr labelled
EC50 [1]: 2.4 nM

B2: natZr-DFO-AP-101 (antibody, V domains shown)
VH: QVQLVQSGAEVKKPGASVTLSCKASGYTFTAYYIHWVRQAREQGLEWMGVINPSTGTTFYAQNFPDRVSVTRDTSTSTVFMELHNLKSEDTAVYYCARAISEHGSGSYSPYYWGQGTLVTVSS
VL: SYELTQPPSVSVSLGQMAAITCSGEALPKKYGYWYQQKPGQVPVLLIYRDVERPSGVPDRFSGSSSGTMVTLTISGVQAEDEADYYCLSADSSGTWVFGGGTKLTVLG
modifications: DFO chelator conjugated on lysines (DFO:antibody 1.1:1.0), natZr labelled
EC50 [1]: 0.3 nM | EC50 [2]: 0.5 nM

B3: AP-101 (non-modified alpha-miSOD1) (antibody, V domains shown)
VH: QVQLVQSGAEVKKPGASVTLSCKASGYTFTAYYIHWVRQAREQGLEWMGVINPSTGTTFYAQNFPDRVSVTRDTSTSTVFMELHNLKSEDTAVYYCARAISEHGSGSYSPYYWGQGTLVTVSS
VL: SYELTQPPSVSVSLGQMAAITCSGEALPKKYGYWYQQKPGQVPVLLIYRDVERPSGVPDRFSGSSSGTMVTLTISGVQAEDEADYYCLSADSSGTWVFGGGTKLTVLG
EC50 [3]: 0.2 nM
